Data from patent US20010016352, “NUCLEIC ACID SEQUENCES CONTROLLING LUNG CELL-SPECIFIC GENE EXPRESSION” (published 2001).

Key:
[1] = target: T1, TTF-1 full length (UniProt P23441); assay: cell_activity; conditions: SV40-P F + pCMV-TTF-1 in H441, relative to SV40-P =1 (3.5 without TTF-1)
T1 sequence: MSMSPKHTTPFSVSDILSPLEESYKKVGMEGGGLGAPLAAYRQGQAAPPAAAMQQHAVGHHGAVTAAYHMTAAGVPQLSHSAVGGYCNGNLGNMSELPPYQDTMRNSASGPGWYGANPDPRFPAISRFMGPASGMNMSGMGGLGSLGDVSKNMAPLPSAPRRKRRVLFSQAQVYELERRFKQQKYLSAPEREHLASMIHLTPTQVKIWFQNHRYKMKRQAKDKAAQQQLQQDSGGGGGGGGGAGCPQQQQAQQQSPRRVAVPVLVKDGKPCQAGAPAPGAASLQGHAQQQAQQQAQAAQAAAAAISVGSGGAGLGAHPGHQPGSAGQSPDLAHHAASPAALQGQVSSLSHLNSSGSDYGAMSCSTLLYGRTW

[2] = target: T2, TTF-1 homeodomain (TTF-1 HD) (Rattus norvegicus, UniProt P23441 P23441:161-220); assay: EMSA; conditions: tags: bacterially expressed homeodomain fragment; label: 32P
T2 sequence: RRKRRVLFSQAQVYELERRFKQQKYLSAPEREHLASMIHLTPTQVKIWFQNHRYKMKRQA

[3] = target: T2, TTF-1 homeodomain (TTF-1 HD); assay: EMSA; two complexes A' and B'; on ice, 5 mM MgCl2; conditions: tags: bacterially expressed homeodomain fragment; label: 32P
Procedure: The electrophoretic mobility shift assay (EMSA) was adapted from Hennighausen and Lubon, Meth. Enzymol., Vol. 152, pgs. 727-735 (1987). Briefly, nuclear extract (1-2 μl) and, when indicated, unlabeled oligonucleotide competitor DNA were preincubated in 20 μl Buffer C (12 mM HEPES, pH 7.9; 4 mM Tris-Cl pH 7.9; 25 mM KCl; 5 mM MgCl₂; 1 mM EDTA; 1 mM DTT; 50 ng μl⁻¹ poly[d(I-C)], Boehringer Mannheim; 0.2 mM fresh PMSF) for 10 minutes on ice. Probe (100,000 dpm) was added and incubated an additional 20 minutes on ice. For antibody supershift and interference assays, 1 μl of antibody was added after the addition of probe and incubated an additional 20 minutes on ice. TTF-1 antibody is described in Lazzaro et al., Development, Vol. 113, pgs. 1093-1104 (1991). HNF-3α, β, and γ antibodies were kindly provided by Dr. J. E. Darnell, Jr. (Lai et al., Genes and Devel., Vol. 5, pgs. 416-427 (1991)). Recombinant, bacterially expressed TTF-1 homeodomain protein (TTF-1 HD) is described in Guazzi et al., EMBO J., Vol. 9, pgs. 3631-3639 (1990). Assays were performed using 1 μl TTF-1 HD in place of nuclear extract. Bound and free probe were resolved using non-denaturing polyacrylamide gel electrophoresis. […]

“CAGGGCTTGCCCTGGGTTAAGAGCCAGGCAGGAAGCTCTCAAGAGCATTGCTCAGAGGGGGCCTGGGTGGCCCAGGGAGGGGATGCGAGGGGAACACCCAGGC (double strand) [hSP-B -439/-331 enhancer]” was tested. Which activity [1] did it give?
Its activity is 8.3 fold.

B1: Ba wild type (dsDNA)
DNA 1: CAGGGCTTGCCCTGGGTTAAGAGCCAGGCA
DNA 2: TGCCTGGCTCTTAACCCAGGGCAAGCCCTG
Does B1 bind [2]?
Result: binds

B2: SPB-f1 (dsDNA)
DNA 1: AGCACCTGGAGGGCTCTTCAGAGC
DNA 2: GCTCTGAAGAGCCCTCCAGGTGCT
Does B2 bind [3]?
Result: binds
